Biological target: FLAG-GluK2 (UniProt P42260)
Test: co-IP; COS-7 cells transfected with combinations of FLAG-GluK2, Neto2 or Neto2Δ7 and GRIP(PDZ4-7)-myc; lysates immunoprecipitated with an anti-GluK2 antibody, western blot

UniProt P42260, sequence (P42260 32-908): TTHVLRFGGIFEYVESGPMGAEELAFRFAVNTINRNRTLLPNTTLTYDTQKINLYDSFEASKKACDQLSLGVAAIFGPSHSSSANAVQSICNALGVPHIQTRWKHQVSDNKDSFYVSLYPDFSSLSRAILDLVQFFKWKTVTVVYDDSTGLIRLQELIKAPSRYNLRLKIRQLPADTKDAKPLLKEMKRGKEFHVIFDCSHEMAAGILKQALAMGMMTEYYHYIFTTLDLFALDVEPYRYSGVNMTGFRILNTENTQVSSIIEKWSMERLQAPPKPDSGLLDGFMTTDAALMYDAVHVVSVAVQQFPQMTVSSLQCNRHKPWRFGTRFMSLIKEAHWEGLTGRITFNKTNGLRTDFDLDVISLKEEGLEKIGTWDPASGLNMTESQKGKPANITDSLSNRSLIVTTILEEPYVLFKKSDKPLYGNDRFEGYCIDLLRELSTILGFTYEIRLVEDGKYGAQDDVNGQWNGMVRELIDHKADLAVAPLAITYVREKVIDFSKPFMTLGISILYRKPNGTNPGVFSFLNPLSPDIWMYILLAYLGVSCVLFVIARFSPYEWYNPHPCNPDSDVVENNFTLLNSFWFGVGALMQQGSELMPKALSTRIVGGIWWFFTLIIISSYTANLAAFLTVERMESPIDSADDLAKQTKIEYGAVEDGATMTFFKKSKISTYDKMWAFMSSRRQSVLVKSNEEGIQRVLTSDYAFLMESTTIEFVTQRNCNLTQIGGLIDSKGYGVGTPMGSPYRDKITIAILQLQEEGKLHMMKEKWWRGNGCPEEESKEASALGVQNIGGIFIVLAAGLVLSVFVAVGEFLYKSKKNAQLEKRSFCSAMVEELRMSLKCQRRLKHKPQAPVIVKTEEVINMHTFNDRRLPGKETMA

amount coimmunoprecipitated with GluK2 when Neto2 is coexpressed, percent of signal in the absence of Neto2 (% of signal in the absence of Neto2): 250
amount coimmunoprecipitated with GluK2 when Neto2Δ7 is coexpressed, percent of signal in the absence of Neto2 (% of signal in the absence of Neto2): 103
Substance: C-terminal myc-tagged GRIP(PDZ4-7) (domain or fragment)

— paper PMC3516556
